# According to US20230094463A1 (TRUEBINDING, published 2023):
# What was measured:
# [1] = molecular target: T1, Human Galectin-3 protein (Acro Biosystems, GA3-H5129) (human, UniProt P17931 2-250); experiment: ELISA, blocking of INSR binding to coated Gal3
# T1 construct: Bought protein; also called Gal3-ECD-His; Gal3-His; not shown: linker-spaced 6-histidine tag
# [2] = molecular target: T1, Human Galectin-3 protein (Acro …); experiment: blocking ELISA (Gal3 coated; antibody 3 µg/mL + INSR)
# [3] = molecular target: T1, Human Galectin-3 protein (Acro …); experiment: SPR (Biacore T200), antibody captured, Galectin-3 as analyte
# [4] = molecular target: T2, Human GAL3 protein (TrueBinding, QCB200349 / QCB200352; R&D Systems, 8259-GA) (human, UniProt P17931 2-250); experiment: blocking ELISA (GAL3 coated; antibody + biotinylated ITGa3)
# T2 construct: also called human galectin-3
# T2 sequence (P17931 2-250 limits assumed): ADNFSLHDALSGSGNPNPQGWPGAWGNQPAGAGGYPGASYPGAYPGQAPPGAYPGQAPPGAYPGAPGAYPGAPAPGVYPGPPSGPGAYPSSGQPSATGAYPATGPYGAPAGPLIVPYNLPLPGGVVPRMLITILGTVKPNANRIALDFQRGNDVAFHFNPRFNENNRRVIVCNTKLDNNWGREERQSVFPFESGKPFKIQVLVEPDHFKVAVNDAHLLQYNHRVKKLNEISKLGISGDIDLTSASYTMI
# [5] = molecular target: T2, Human GAL3 protein (TrueBinding, …); experiment: blocking ELISA (GAL3 coated; antibody + biotinylated ITGb3)
# [6] = molecular target: T2, Human GAL3 protein (TrueBinding, …); experiment: blocking ELISA (GAL3 coated; antibody + biotinylated ITGaV)
# T1 sequence (P17931 2-250): as the sequence (P17931 2-250 limits assumed) above
Binder,Gal3-INSR Blocking @ 3 µg/mL [1] [%],"Gal3-INSR binding remaining, % of unblocked sample [2] [%]",Kd [3] [nM],percent blockade of GAL3-ITGa3 interaction [4] [%],percent blockade of GAL3-ITGb3 interaction [5] [%],percent blockade of GAL3-ITGaV interaction [6] [%]
"4G2.2G6 (antibody, V domains shown) VH: QIQLVQSGPDLKKPGETVKISCKASGYTFTTYVMSWVKQAPGKDLKWMGWINTHSGVPTYADDFKGRFDFSLETSANTAFLQINNLKNEDTATYFCTRDGNDGDAMDNWGQGTSVTVSS VL: not shown",100,< 5,< 1,–,–,–
"F846C.1B2 (antibody, V domains shown, also called 846.1B2) VH: QIQLVQSGPELKKPGETVKISCKASGYTFTNYGMNWVKQAPGKGLKWMGWINTYTGEPSYADDFKGRFAFSLETSASTAYLQINNLKNEDMATYFCARWGGYAGDYYAMDFWGQGTSVTVSS VL: NIWLTQSPSSLAVSAGEMVTMTCKSSQSVLYSSNQKNYLAWYQQKPGQSPKLLIYWASTRESGVPDRFTGSGSGTDFSLTISSVQAEDLAVYYCHQYLSSLTFGAGTKLELK",–,–,–,> 90,> 90,> 90
"F846C.1H12 (antibody, V domains shown, also called 846.1H12) VH: QIQLVQSGPELKKPGETVKISCKASGYTFTNFGMNWVKQAPGKGLKWMGWINTYTGEPSYADDFKGRFAFSLETSASTAYLQINNLKNEDIATYFCARWGGYAGDYYAMDYWGQGTSVTVSS VL: NIMMTQSPSSLAVSAGQKVTMSCKSSQSVLYSSSQKNYLAWYQQKPGQSPKLLIYWASTRESGVPDRFSGSGSGTDFTLTISSVQPEDLAVYYCHQYLSSLTFGAGTKLELKR",–,–,–,> 90,> 90,–
"F846C.2H3 (antibody, V domains shown, also called 846.2H3) VH: QIQLVQSGPELKKPGETVKISCKASGYTFTNYGMNWVKQAPGKGLKWMGWINTYTGEPSYADDFKGRFAFSLETSASTAYLQINNLKNEDMATYFCARWGGYDGDYYAMDYWGQGTSVTVSS VL: NIMMTQSPSSLAVSAGEKVTMSCKSSQSVLYSSNQKNYLAWYQQKPGQSPKLLIYWASTRESGVPDRFTGSGSGTDFTLTISSVQPEDLAVYYCHQYLSSLTFGAGTKLELK",–,–,–,> 90,> 90,> 90
"F846TC.16B5 (antibody, V domains shown, also called 846T.16B5) VH: QIQLVQSGPELKKPGETVKISCKASGYTFTNYGMNWVKQAPGKGLKWMGWINTYTGEPAYADDFKGRFAFSLETSASTAYLQINNLKNEDMATYFCARWGGYDGDYYAMDYWGQGTSVTVSS VL: NIMMTQSPSSLAVSAGEKVTMSCKSSQSVLYSSNQKNYLAWYQQKPGQSPKLLIYWASTRESGVPDRFTGSGSGTDFTLTISSVQAEDLAVYYCHQYLSSLTFGAGTKLELKR",–,–,–,> 90,> 90,> 90
"F847C.11B1 (antibody, V domains shown, anti-Gal3 antibody; also called 847.11B1) VH: EVQLQQSGPELVKPGASVKISCKASGNTFTDHNMHWVKQSHGKSLEWIGYIYPYNGGTGYNQKFKSKATLTVDNSSSTVYMELRSLTSEDSAVYYCARGEYDYLAWFAYWGQGTLVTVSA VL: EIVLTQSPASLSVTTGEKVTIRCITSIDIDDDMNWYQQKPGEPPKLLISEGNTLRPGVPSRFSSSGYGTDFVFTIENTLSEDVADYYCLQSDNKPLTFGAGTKLELKR",–,–,–,< 35,< 10,< 30
"F847C.10B9 (antibody, V domains shown, also called 847.10B9) VH: QIQLVQSGPEVKKPGETVKISCKASGYIFTNYGMNWVKQAPGKGLKWMGWINTYTGEPTYTDDFKGRFAFSLETSASTAYLQINNLKNEDTATYFCAKFGNYVGAMDYWGQGTSVTVSS VL: DIRMTQSPSSLSASLGDTITITCHASQNINVWLSWYQQKPGNIPKLLIYKASNLHTGVPSRFSGSGSGTGFTLTISSLQPEDIATYYCQQGQSYPYTFGGGTKLELK",–,–,–,> 90,> 90,> 90
"F847C.12F12 (antibody, V domains shown, anti-Gal3 antibody; also called 847.12F12; 84712F12) VH: QIQLVQSGPELKKPGETVKISCKASGYTFTNYGMNWVKQAPGKGLKWMGWINTYTGEPTYVDDFKGRFAFSLETSASTAYLRINNLKNEDTATYFCAKFGNYVGAMDYWGQGTSVTVSS VL: DIQVIQSPSSLSASLGDTITITCHASQNINVWLSWYQQKPGNIPKLLIYKASNLHTGVPSRFSGSGSGTGFTLTISSLQPEDIATYYCQQGQSYPYTFGGGTKLELK",–,–,–,> 90,> 90,> 90
"F847C.26F5 (antibody, V domains shown, also called 847.26F5) VH: QIQLVQSGPEVKKPGETVKISCKASGYIFTNYGMNWVKQAPGKGLKWMGWINTYTGEPTYTDDFKGRFAFSLETSASTAYLQINNLKNEDTATYFCAKFGNYVGAMDYWGQGTSVTVSS VL: EIKMNQSPSSLSASLGDTITITCHASQNINVWLSWYQQKPGNIPKLLIYKASNLHTGVPSRFSGSGSGTGFTLTISSLQPEDIATYYCQQGQSYPYTFGGGTKLELK",–,–,–,> 90,> 90,> 90
"7D8.2D8 (antibody, V domains shown) VH: EVQLVESGGGLVKPGGSLKLSCAASGFTFSSYAMSWVRQTPEKRLEWVATISDGGIYTYYPDNVKGRFTISRDNAKNNLFLQMSHLKSEDTAMYYCVRDGGYWGQGTTLTVSS VL: DVLMTQTPLSLPVSLGDQASISCRSSQSIVHSNGNTYLEWYLQKPGQSPKLLIYKVSNRFSGVPDRFSGSGSGTDFTLKISRVEAEDLGVYYCFQGSHVPLTFGAGTKLELK",75,–,2.49,–,–,–
"15F10.2D6 (antibody, V domains shown) VH: EVQLVESGGGLVKPGGSLKLSCAASGFAFSSYAMSWVRQTPEKRLEWVATISDGGVYTYYTDHVKGRFTISRDNAEDNLYLQMSHLKSEDTAMYYCVRDGGYWGQGTTLTVSS VL: DVLMTQTPLSLPVSLGDQASISCRSSQSIVHNNGNTYLEWYLQKPGQSPKLLIYKVSNRFSGVPDRFSGSGSGTDFTLKISRVEAEDLGVYYCFQGSHVPLTFGGGTKLELK",82,–,2.06,–,–,–
"F846TC.14A2 (antibody, V domains shown, anti-Gal3 antibody; also called 846T.14A2) VH: QIQLVQSGPELKKPGETVKISCKASGYTFTNYGMNWVKQAPGKGLKWMGWINTYTGEPTYAGDLKGRFAFSLETSASTAYLQINNLKNEDTATYFCVRYTMDYWGQGTSVTVSS VL: QAVVTQESALTTSPGETVTLTCRSSTGAVTTSNYANWVQEKPDHLFTGLIGGINNRVPGVPARFSGSLIGDKAALTITGAQTEDEAIYFCALWYSNHWVFGGGTKLTVL",–,–,–,> 90,> 90,> 90
"F847.14H4 (847.14H4) (antibody, V domains shown, anti-Gal3 antibody) VH: QIQLVQSGPELTKPGETVKISCKASGYTFTDYGMNWVRQAPGETLKWMGWINTYTGEPTYADDFKGRFAFSLESSASTAYLQINNLKNEDVATYFCARYPMDYWGQGTSVTVSS VL: QAVVTQESALTTSPGETVTLTCRSSTGAVTTSNYANWVQEKPDHLFTGLIGGTNNRAPGVPARFSGSLIGDKAALTITGAQTEDEAIYFCALWYSNHLVFGGGTKLTVL",–,–,–,< 35,< 10,< 30
"3B11.2G2 (antibody, V domains shown) VH: QIQLVQSGPELKKPGETVKISCKTSGYKFKTYVMSWVKQAPGKALKWMGWINTYSGVPTYADDFKGRFAFSLETSASTAYLEIINLKNEDTATYFCARDGNYGDPMDYWGQGTSVTVSS VL: not shown",96,< 5,< 1,–,–,–
"F846C.1H5 (antibody, V domains shown, anti-Gal3 antibody; also called 846.1H5) VH: EVQLLESGGGLVKPGGSLKLSCAASGFTFSSYAMSWVRQTPEKRLEWVASISSGGDTYYPDSVKGRFTISRDNARNILYLQMSSLRSEDTAMYYCASYGNSLFDYWGQGTTLTVSS VL: DVVMTQTPLSLPVSLGDQASISCRSSQSLVHNSGNTYLHWYLQRPGQSPNLLIYKVSNRFSGVPDRFSGSGSGTDFTLKISRVAAEDLGVYFCSQSTHVPPTFGGGTKLEIK",–,–,–,> 90,–,–
"F847C.4B10 (antibody, V domains shown, anti-Gal3 antibody; also called 847.4B10) VH: EVQLVETGGGLVKPGGSLKLSCAASGFTFSSYAMSWVRQTPEKRLEWVASISSGGSTYYPDSVKGRFTISRDNARNILYLQMSSLRSEDTAMYYCTRFTTVVEMDYWGQGTSVTVSS VL: QAVVTQESALTTSPGETVTLTCRSSTGAVTTSNYANWVQEKPDHLFTGLIGGTNNRAPGVPARFSGSLIGDKAALTITGAQTEDEAIYFCALWYSNHLVFGGGTKLTVLR",–,–,–,> 90,–,–
"13H12.2F8 (antibody, V domains shown) VH: QIQLVQSGPELKKPGETVKISCKASGYTFTTYGMSWVKQAPGKGLKWMGWINTYSGVPTYADDFKGRFAFSLETSASTAYLQINNLKNEDTATYFCAVPYEYDGAYWGQGTLVTVSA VL: not shown",97,–,6.07,–,–,–
"19D9.2E5 (antibody, V domains shown) VH: QIQLVQSGPELKKPGETVKISCKASGYTFTTYGMGWVKQAPGKGLKWMGWINTYSGVPTYADDFKGRFAFSLETSTSTAYLQINNLKNEDMATYFCATPYEYDGAYWGQGTLVTVSA VL: not shown",100,< 5,< 1,–,–,–
